Assay results reported in publication PMC11606422, “MdWRKY31‐MdNAC7 regulatory network: orchestrating fruit softening by modulating cell wall‐modifying enzyme MdXTH2 in response to ethylene signalling”.

Target: T1, MdNAC7 (Malus domestica, UniProt D9ZJA6 1-263)
T1 sequence: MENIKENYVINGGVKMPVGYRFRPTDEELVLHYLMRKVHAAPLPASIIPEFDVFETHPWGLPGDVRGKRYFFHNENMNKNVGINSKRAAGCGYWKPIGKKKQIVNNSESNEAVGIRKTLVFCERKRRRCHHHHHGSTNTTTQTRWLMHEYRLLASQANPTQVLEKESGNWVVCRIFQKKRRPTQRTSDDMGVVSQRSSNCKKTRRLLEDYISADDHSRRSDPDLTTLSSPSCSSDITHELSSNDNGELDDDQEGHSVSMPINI
Assay: EMSA; LightShift Chemiluminescent EMSA kit, 10 uL, room temperature 30 min, 6% polyacrylamide gel in 0.5x TBE; salt and pH not stated
Conditions: protein: recombinant; chain copies: 2; label: biotin

B1: MdXTH2 promoter probe for MdNAC7 (dsDNA)
DNA 1: GTAGTACACCATGTGTTATTAT
DNA 2: ATAATAACACATGGTGTACTAC
B1: no binding.
